This note sets out measurements from article PMC10786891, “Massively parallel profiling of RNA-targeting CRISPR-Cas13d”.

The Kd is a measure of binding affinity in units of concentration.

T1: EsCas13d, nuclease-dead (Eubacterium siraeum, UniProt B0MS50, R295A;H300A;R849A;H854A)
T1 sequence: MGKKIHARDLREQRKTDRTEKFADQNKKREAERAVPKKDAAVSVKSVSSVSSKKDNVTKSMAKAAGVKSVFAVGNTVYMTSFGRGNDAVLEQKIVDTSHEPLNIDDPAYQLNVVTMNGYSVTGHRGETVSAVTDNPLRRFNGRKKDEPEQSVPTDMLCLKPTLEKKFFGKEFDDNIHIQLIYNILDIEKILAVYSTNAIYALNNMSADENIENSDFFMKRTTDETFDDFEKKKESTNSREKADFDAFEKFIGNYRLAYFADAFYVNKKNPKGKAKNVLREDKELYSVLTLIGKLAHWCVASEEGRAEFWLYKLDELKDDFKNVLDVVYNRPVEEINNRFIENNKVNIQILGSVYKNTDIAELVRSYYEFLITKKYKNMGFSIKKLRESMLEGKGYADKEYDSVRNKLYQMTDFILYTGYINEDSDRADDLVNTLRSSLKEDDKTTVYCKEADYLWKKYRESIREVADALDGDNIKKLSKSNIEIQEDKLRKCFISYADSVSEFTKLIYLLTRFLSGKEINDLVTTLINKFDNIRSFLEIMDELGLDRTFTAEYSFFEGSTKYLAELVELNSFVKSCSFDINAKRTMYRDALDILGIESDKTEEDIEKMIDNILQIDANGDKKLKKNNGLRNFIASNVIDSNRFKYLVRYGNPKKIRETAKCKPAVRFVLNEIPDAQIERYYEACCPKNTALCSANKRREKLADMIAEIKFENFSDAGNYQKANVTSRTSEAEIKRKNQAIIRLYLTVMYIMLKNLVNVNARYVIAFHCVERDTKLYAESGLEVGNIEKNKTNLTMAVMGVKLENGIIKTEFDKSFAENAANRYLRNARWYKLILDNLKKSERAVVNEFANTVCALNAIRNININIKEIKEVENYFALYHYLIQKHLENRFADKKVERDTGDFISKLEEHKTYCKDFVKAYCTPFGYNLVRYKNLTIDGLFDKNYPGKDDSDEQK

B1: target 1 MT 5'PFS AGG 3'PFS CGA (mixed)
RNA 1: CACCCGUGCAAAAAUGCAGGGGUCUAAAACUGAGCGGAUAACCUCUCUAUGG
RNA 2: GGGAAUGGAUCCACAUCUACGAAUUCAGGCCAUAGAGAGGUUAUCCGCUCACGAAGAUCGGAAGAGCACACGU
B2: target 1 MT 5'PFS ACU 3'PFS CUA (mixed)
RNA 1: CACCCGUGCAAAAAUGCAGGGGUCUAAAACUGAGCGGAUAACCUCUCUAUGG
RNA 2: GGGAAUGGAUCCACAUCUACGAAUUCACUCCAUAGAGAGGUUAUCCGCUCACUAAGAUCGGAAGAGCACACGU
B3: target 1 MT 5'PFS UGU 3'PFS UCC (mixed)
RNA 1: CACCCGUGCAAAAAUGCAGGGGUCUAAAACUGAGCGGAUAACCUCUCUAUGG
RNA 2: GGGAAUGGAUCCACAUCUACGAAUUCUGUCCAUAGAGAGGUUAUCCGCUCAUCCAGAUCGGAAGAGCACACGU
B4: target 1 MT 5'PFS GGA 3'PFS CAA (mixed)
RNA 1: CACCCGUGCAAAAAUGCAGGGGUCUAAAACUGAGCGGAUAACCUCUCUAUGG
RNA 2: GGGAAUGGAUCCACAUCUACGAAUUCGGACCAUAGAGAGGUUAUCCGCUCACAAAGAUCGGAAGAGCACACGU
B5: target 1 MT 5'PFS GGA 3'PFS ACA (mixed)
RNA 1: CACCCGUGCAAAAAUGCAGGGGUCUAAAACUGAGCGGAUAACCUCUCUAUGG
RNA 2: GGGAAUGGAUCCACAUCUACGAAUUCGGACCAUAGAGAGGUUAUCCGCUCAACAAGAUCGGAAGAGCACACGU
B6: target 1 MT 5'PFS UCC 3'PFS AUC (mixed)
RNA 1: CACCCGUGCAAAAAUGCAGGGGUCUAAAACUGAGCGGAUAACCUCUCUAUGG
RNA 2: GGGAAUGGAUCCACAUCUACGAAUUCUCCCCAUAGAGAGGUUAUCCGCUCAAUCAGAUCGGAAGAGCACACGU
B7: target 1 MT 5'PFS UCC 3'PFS AUG (mixed)
RNA 1: CACCCGUGCAAAAAUGCAGGGGUCUAAAACUGAGCGGAUAACCUCUCUAUGG
RNA 2: GGGAAUGGAUCCACAUCUACGAAUUCUCCCCAUAGAGAGGUUAUCCGCUCAAUGAGAUCGGAAGAGCACACGU
B8: target 1 MT 5'PFS CAA 3'PFS UUA (mixed)
RNA 1: CACCCGUGCAAAAAUGCAGGGGUCUAAAACUGAGCGGAUAACCUCUCUAUGG
RNA 2: GGGAAUGGAUCCACAUCUACGAAUUCCAACCAUAGAGAGGUUAUCCGCUCAUUAAGAUCGGAAGAGCACACGU
B9: target 1 MT 5'PFS UUG 3'PFS UAU (mixed)
RNA 1: CACCCGUGCAAAAAUGCAGGGGUCUAAAACUGAGCGGAUAACCUCUCUAUGG
RNA 2: GGGAAUGGAUCCACAUCUACGAAUUCUUGCCAUAGAGAGGUUAUCCGCUCAUAUAGAUCGGAAGAGCACACGU
B10: target 1 MT 5'PFS CUC 3'PFS CCU (mixed)
RNA 1: CACCCGUGCAAAAAUGCAGGGGUCUAAAACUGAGCGGAUAACCUCUCUAUGG
RNA 2: GGGAAUGGAUCCACAUCUACGAAUUCCUCCCAUAGAGAGGUUAUCCGCUCACCUAGAUCGGAAGAGCACACGU
B11: target 1 MT 5'PFS CAU 3'PFS AUA (mixed)
RNA 1: CACCCGUGCAAAAAUGCAGGGGUCUAAAACUGAGCGGAUAACCUCUCUAUGG
RNA 2: GGGAAUGGAUCCACAUCUACGAAUUCCAUCCAUAGAGAGGUUAUCCGCUCAAUAAGAUCGGAAGAGCACACGU
B12: target 1 MT 5'PFS UGU 3'PFS UCA (mixed)
RNA 1: CACCCGUGCAAAAAUGCAGGGGUCUAAAACUGAGCGGAUAACCUCUCUAUGG
RNA 2: GGGAAUGGAUCCACAUCUACGAAUUCUGUCCAUAGAGAGGUUAUCCGCUCAUCAAGAUCGGAAGAGCACACGU
B13: target 1 MT 5'PFS GGA 3'PFS ACG (mixed)
RNA 1: CACCCGUGCAAAAAUGCAGGGGUCUAAAACUGAGCGGAUAACCUCUCUAUGG
RNA 2: GGGAAUGGAUCCACAUCUACGAAUUCGGACCAUAGAGAGGUUAUCCGCUCAACGAGAUCGGAAGAGCACACGU
B14: target 1 MT 5'PFS CUU 3'PFS AUA (mixed)
RNA 1: CACCCGUGCAAAAAUGCAGGGGUCUAAAACUGAGCGGAUAACCUCUCUAUGG
RNA 2: GGGAAUGGAUCCACAUCUACGAAUUCCUUCCAUAGAGAGGUUAUCCGCUCAAUAAGAUCGGAAGAGCACACGU
B15: target 1 MT 5'PFS GGA 3'PFS CAC (mixed)
RNA 1: CACCCGUGCAAAAAUGCAGGGGUCUAAAACUGAGCGGAUAACCUCUCUAUGG
RNA 2: GGGAAUGGAUCCACAUCUACGAAUUCGGACCAUAGAGAGGUUAUCCGCUCACACAGAUCGGAAGAGCACACGU
B16: target 1 insU 3' of 17,insU 3' of 12 (mixed)
RNA 1: CACCCGUGCAAAAAUGCAGGGGUCUAAAACUGAGCGGAUAACCUCUCUAUGG
RNA 2: GGGAAUGGAUCCACAUCUACGAAUUCGUACCAUAGUAGAGGUUUAUCCGCUCACCGAGAUCGGAAGAGCACACGU
B17: target 1 MT 5'PFS ACU 3'PFS CUU (mixed)
RNA 1: CACCCGUGCAAAAAUGCAGGGGUCUAAAACUGAGCGGAUAACCUCUCUAUGG
RNA 2: GGGAAUGGAUCCACAUCUACGAAUUCACUCCAUAGAGAGGUUAUCCGCUCACUUAGAUCGGAAGAGCACACGU
B18: target 1 MT 5'PFS UUG 3'PFS UAG (mixed)
RNA 1: CACCCGUGCAAAAAUGCAGGGGUCUAAAACUGAGCGGAUAACCUCUCUAUGG
RNA 2: GGGAAUGGAUCCACAUCUACGAAUUCUUGCCAUAGAGAGGUUAUCCGCUCAUAGAGAUCGGAAGAGCACACGU
B19: target 1 MT 5'PFS GGA 3'PFS ACU (mixed)
RNA 1: CACCCGUGCAAAAAUGCAGGGGUCUAAAACUGAGCGGAUAACCUCUCUAUGG
RNA 2: GGGAAUGGAUCCACAUCUACGAAUUCGGACCAUAGAGAGGUUAUCCGCUCAACUAGAUCGGAAGAGCACACGU
B20: target 1 MT 5'PFS CUC 3'PFS UUG (mixed)
RNA 1: CACCCGUGCAAAAAUGCAGGGGUCUAAAACUGAGCGGAUAACCUCUCUAUGG
RNA 2: GGGAAUGGAUCCACAUCUACGAAUUCCUCCCAUAGAGAGGUUAUCCGCUCAUUGAGAUCGGAAGAGCACACGU
B21: target 1 insC 3' of 11,insA 3' of 11 (mixed)
RNA 1: CACCCGUGCAAAAAUGCAGGGGUCUAAAACUGAGCGGAUAACCUCUCUAUGG
RNA 2: GGGAAUGGAUCCACAUCUACGAAUUCGUACCAUAGAGAGGUCAUAUCCGCUCACCGAGAUCGGAAGAGCACACGU
B22: target 1 MT 5'PFS GGA 3'PFS ACC (mixed)
RNA 1: CACCCGUGCAAAAAUGCAGGGGUCUAAAACUGAGCGGAUAACCUCUCUAUGG
RNA 2: GGGAAUGGAUCCACAUCUACGAAUUCGGACCAUAGAGAGGUUAUCCGCUCAACCAGAUCGGAAGAGCACACGU
B23: target 1 MT 5'PFS UGU 3'PFS UCG (mixed)
RNA 1: CACCCGUGCAAAAAUGCAGGGGUCUAAAACUGAGCGGAUAACCUCUCUAUGG
RNA 2: GGGAAUGGAUCCACAUCUACGAAUUCUGUCCAUAGAGAGGUUAUCCGCUCAUCGAGAUCGGAAGAGCACACGU
B24: target 1 MT 5'PFS UCC 3'PFS AUA (mixed)
RNA 1: CACCCGUGCAAAAAUGCAGGGGUCUAAAACUGAGCGGAUAACCUCUCUAUGG
RNA 2: GGGAAUGGAUCCACAUCUACGAAUUCUCCCCAUAGAGAGGUUAUCCGCUCAAUAAGAUCGGAAGAGCACACGU
B25: target 1 MT 5'PFS GGA 3'PFS CAG (mixed)
RNA 1: CACCCGUGCAAAAAUGCAGGGGUCUAAAACUGAGCGGAUAACCUCUCUAUGG
RNA 2: GGGAAUGGAUCCACAUCUACGAAUUCGGACCAUAGAGAGGUUAUCCGCUCACAGAGAUCGGAAGAGCACACGU
B26: target 1 MT 5'PFS UGU 3'PFS UCU (mixed)
RNA 1: CACCCGUGCAAAAAUGCAGGGGUCUAAAACUGAGCGGAUAACCUCUCUAUGG
RNA 2: GGGAAUGGAUCCACAUCUACGAAUUCUGUCCAUAGAGAGGUUAUCCGCUCAUCUAGAUCGGAAGAGCACACGU
B27: target 1 MT 5'PFS UUG 3'PFS UAC (mixed)
RNA 1: CACCCGUGCAAAAAUGCAGGGGUCUAAAACUGAGCGGAUAACCUCUCUAUGG
RNA 2: GGGAAUGGAUCCACAUCUACGAAUUCUUGCCAUAGAGAGGUUAUCCGCUCAUACAGAUCGGAAGAGCACACGU

This series deals with T1, EsCas13d, nuclease-dead. The experiment in a line: crRNA (strand 1, pre-loaded); Mg2+; 40 mM Tris-HCl pH 7.5, 150 mM NaCl, 6 mM MgCl2, 1 mM DTT, 0.1% Tween-20, 0.2 mg/ml BSA; 25 C; 10 min per concentration, then washed. The note with it: tags: His6-TwinStrep-SUMO cleaved; N-terminal SNAP kept (SNAP-Surface 488); label: 3' end held by stalled T7 RNA polymerase.
Molecule B1 showed a Kd of approximately 73 nM.

In the case of B2, the Kd was approximately 34.5 nM.

Turning to B3, the Kd was 39 ± 10.5 nM.

On to B4, for which the Kd came out at 52 ± 16 nM.

For B5, the Kd came to 27 ± 5 nM.

B6 yielded a Kd of 43.5 ± 17.5 nM.

B7 gave a Kd of 39 ± 17 nM.

The molecule B8 gave a Kd of 7.25 ± 2 nM.

Molecule B9 had a Kd of 16.9 ± 2.45 nM.

The molecule B10 had a dissociation constant (Kd) of approximately 40 nM.

In turn, B11 registered a Kd of approximately 70 nM.

As to B12, the Kd was found to be 47.5 ± 13 nM.

On to B13, for which the dissociation constant (Kd) was 20.5 ± 4 nM.

The molecule B14 showed a Kd of approximately 50.5 nM.

For B15, the affinity, expressed as Kd, was 35.5 ± 15 nM.

B16 registered a Kd of 16.4 ± 3.2 nM.

Regarding B17, binding was characterised by a dissociation constant (Kd) of 38 ± 13 nM.

B18 yielded an equilibrium dissociation constant (Kd) of 47.5 ± 10.5 nM.

In the case of B19, the Kd is 15.8 ± 2.95 nM.

Turning to B20, the dissociation constant Kd is approximately 105 nM.

B21 returned a Kd of 21.4 ± 1 nM.

On to B22, for which the affinity, expressed as Kd, was 27.3 ± 7.15 nM.

As for B23, the Kd is 61 ± 20.5 nM.

As for B24, the Kd stood at 13.7 ± 5.05 nM.

Take B25: the dissociation constant (Kd) worked out at 24.5 ± 5 nM.

Regarding B26, the dissociation constant (Kd) is 28.5 ± 6.5 nM.

In turn, B27 had a dissociation constant Kd of 42.5 ± 13.5 nM.
